Data published in publication PMC12102759 (2025).

B1: PEX5 peptide 240-255 (Peroxisomal targeting signal 1 receptor), 16-mer library wild type / PEX14 Pex14 (PEX14 PEX14, residues 16-84) (parent complex)
chain 1: AEQWAAEFIQQQGTSD
chain 2: TPGSENVLPREPLIATAVKFLQNSRVRQSPLATRRAFLKKKGLTDEEIDMAFQQSGTAADEPSSLGPAT

Variants of: B1
Assay: proteomic peptide phage display deep mutational scan (ProP-PD DMS): M13 P8 16-mer library selected against immobilised GST-tagged bait for four days (rounds), NGS of the eluted pools per day and pseudo-replica; bait immobilised on MaxiSorp plates (10 µg), library pre-cleared on GST, 2 h binding at 4 °C, five washes; one round per day, days 1-4; value from days 2 and 3

First: chain 1 AEQWAAWFIQQQGTSD [chain 1 E7W]
Second: chain 1 AEQWAAAFIQQQGTSD [chain 1 E7A]
The screen value of the first is higher: 0.00666 average fractional NGS count over selection days 2 and 3 (reads of this peptide / all reads for the bait, averaged over … for the first, 0.00276 average fractional NGS count over selection days 2 and 3 (reads of this peptide / all reads for the bait, averaged over … for the second.

Compared with chain 1 AEQWAAGFIQQQGTSD [chain 1 E7G], chain 1 AEQWAALFIQQQGTSD [chain 1 E7L] is higher in screen value: 0.00104 average fractional NGS count over selection days 2 and 3 (reads of this peptide / all reads for the bait, averaged over … for the first, 0.0199 average fractional NGS count over selection days 2 and 3 (reads of this peptide / all reads for the bait, averaged over … for the second.

First: chain 1 AEQWAAQFIQQQGTSD [chain 1 E7Q]
Second: chain 1 AEQWAAYFIQQQGTSD [chain 1 E7Y]
The screen value of the first is lower: 0.00112 average fractional NGS count over selection days 2 and 3 (reads of this peptide / all reads for the bait, averaged over … for the first, 0.00419 average fractional NGS count over selection days 2 and 3 (reads of this peptide / all reads for the bait, averaged over … for the second.

First: chain 1 AEQWAATFIQQQGTSD [chain 1 E7T]
Second: chain 1 AEQWAADFIQQQGTSD [chain 1 E7D]
The screen value of the first is lower: 0.0012 average fractional NGS count over selection days 2 and 3 (reads of this peptide / all reads for the bait, averaged over … for the first, 0.00269 average fractional NGS count over selection days 2 and 3 (reads of this peptide / all reads for the bait, averaged over … for the second.

First: chain 1 AEQWAAIFIQQQGTSD [chain 1 E7I]
Second: chain 1 AEQWAAKFIQQQGTSD [chain 1 E7K]
The screen value of the first is higher: 0.000858 average fractional NGS count over selection days 2 and 3 (reads of this peptide / all reads for the bait, averaged over … for the first, 0.000488 average fractional NGS count over selection days 2 and 3 (reads of this peptide / all reads for the bait, averaged over … for the second.

Compared with chain 1 AERWAAEFIQQQGTSD [chain 1 Q3R], chain 1 AEWWAAEFIQQQGTSD [chain 1 Q3W] is higher in screen value: 0.000498 average fractional NGS count over selection days 2 and 3 (reads of this peptide / all reads for the bait, averaged over … for the first, 0.00112 average fractional NGS count over selection days 2 and 3 (reads of this peptide / all reads for the bait, averaged over … for the second.

Compared with chain 1 AEMWAAEFIQQQGTSD [chain 1 Q3M], chain 1 AENWAAEFIQQQGTSD [chain 1 Q3N] is higher in screen value: 0.002 average fractional NGS count over selection days 2 and 3 (reads of this peptide / all reads for the bait, averaged over … for the first, 0.00292 average fractional NGS count over selection days 2 and 3 (reads of this peptide / all reads for the bait, averaged over … for the second.

Going from chain 1 AEGWAAEFIQQQGTSD [chain 1 Q3G] to chain 1 AEVWAAEFIQQQGTSD [chain 1 Q3V], the screen value rises from 0.000648 average fractional NGS count over selection days 2 and 3 (reads of this peptide / all reads for the bait, averaged over … to 0.000961 average fractional NGS count over selection days 2 and 3 (reads of this peptide / all reads for the bait, averaged over ….

Going from chain 1 AEQWAAEFIQQDGTSD [chain 1 Q12D] to chain 1 AEQWAAEFIQQEGTSD [chain 1 Q12E], the screen value rises from 0.00045 average fractional NGS count over selection days 2 and 3 (reads of this peptide / all reads for the bait, averaged over … to 0.00182 average fractional NGS count over selection days 2 and 3 (reads of this peptide / all reads for the bait, averaged over ….

First: chain 1 AEQWAAEFIQQVGTSD [chain 1 Q12V]
Second: chain 1 AEQWAAEFIQQIGTSD [chain 1 Q12I]
The screen value of the first is lower: 0.0011 average fractional NGS count over selection days 2 and 3 (reads of this peptide / all reads for the bait, averaged over … for the first, 0.00133 average fractional NGS count over selection days 2 and 3 (reads of this peptide / all reads for the bait, averaged over … for the second.

Going from chain 1 AEQWAAEFIQQYGTSD [chain 1 Q12Y] to chain 1 AEQWAAEFIQQSGTSD [chain 1 Q12S], the screen value rises from 0.00103 average fractional NGS count over selection days 2 and 3 (reads of this peptide / all reads for the bait, averaged over … to 0.00474 average fractional NGS count over selection days 2 and 3 (reads of this peptide / all reads for the bait, averaged over ….

Going from chain 1 AEQWAAEFIQQLGTSD [chain 1 Q12L] to chain 1 AEQWAAEFIQQFGTSD [chain 1 Q12F], the screen value falls from 0.00232 average fractional NGS count over selection days 2 and 3 (reads of this peptide / all reads for the bait, averaged over … to 0.00145 average fractional NGS count over selection days 2 and 3 (reads of this peptide / all reads for the bait, averaged over ….

Going from chain 1 AEQWAAEFIQQPGTSD [chain 1 Q12P] to chain 1 AEQWLAEFIQQQGTSD [chain 1 A5L], the screen value rises from 0.00104 average fractional NGS count over selection days 2 and 3 (reads of this peptide / all reads for the bait, averaged over … to 0.00177 average fractional NGS count over selection days 2 and 3 (reads of this peptide / all reads for the bait, averaged over ….

Compared with chain 1 AEQWEAEFIQQQGTSD [chain 1 A5E], chain 1 AEQWNAEFIQQQGTSD [chain 1 A5N] is higher in screen value: 0.0005 average fractional NGS count over selection days 2 and 3 (reads of this peptide / all reads for the bait, averaged over … for the first, 0.00753 average fractional NGS count over selection days 2 and 3 (reads of this peptide / all reads for the bait, averaged over … for the second.

Going from chain 1 AEQWMAEFIQQQGTSD [chain 1 A5M] to chain 1 AEQWRAEFIQQQGTSD [chain 1 A5R], the screen value rises from 0.00306 average fractional NGS count over selection days 2 and 3 (reads of this peptide / all reads for the bait, averaged over … to 0.00499 average fractional NGS count over selection days 2 and 3 (reads of this peptide / all reads for the bait, averaged over ….

Compared with chain 1 AEQWHAEFIQQQGTSD [chain 1 A5H], chain 1 AEQWWAEFIQQQGTSD [chain 1 A5W] is lower in screen value: 0.0461 average fractional NGS count over selection days 2 and 3 (reads of this peptide / all reads for the bait, averaged over … for the first, 0.000742 average fractional NGS count over selection days 2 and 3 (reads of this peptide / all reads for the bait, averaged over … for the second.

Going from chain 1 AEQWAAEWIQQQGTSD [chain 1 F8W] to chain 1 AEQWAAEMIQQQGTSD [chain 1 F8M], the screen value falls from 0.00184 average fractional NGS count over selection days 2 and 3 (reads of this peptide / all reads for the bait, averaged over … to 0.00109 average fractional NGS count over selection days 2 and 3 (reads of this peptide / all reads for the bait, averaged over ….

Going from chain 1 AEQWAAEFIQHQGTSD [chain 1 Q11H] to chain 1 AEQWAAEFIQLQGTSD [chain 1 Q11L], the screen value falls from 0.00664 average fractional NGS count over selection days 2 and 3 (reads of this peptide / all reads for the bait, averaged over … to 0.0026 average fractional NGS count over selection days 2 and 3 (reads of this peptide / all reads for the bait, averaged over ….

Going from chain 1 AEQWAAEFIQWQGTSD [chain 1 Q11W] to chain 1 AEQWAAEFIQIQGTSD [chain 1 Q11I], the screen value rises from 0.000954 average fractional NGS count over selection days 2 and 3 (reads of this peptide / all reads for the bait, averaged over … to 0.00199 average fractional NGS count over selection days 2 and 3 (reads of this peptide / all reads for the bait, averaged over ….

Compared with chain 1 AEQWAAEFIQGQGTSD [chain 1 Q11G], chain 1 AEQWAAEFIQSQGTSD [chain 1 Q11S] is lower in screen value: 0.00455 average fractional NGS count over selection days 2 and 3 (reads of this peptide / all reads for the bait, averaged over … for the first, 0.000902 average fractional NGS count over selection days 2 and 3 (reads of this peptide / all reads for the bait, averaged over … for the second.

Compared with chain 1 AEQWAAEFIQVQGTSD [chain 1 Q11V], chain 1 AEQWAAEFIGQQGTSD [chain 1 Q10G] is higher in screen value: 0.0012 average fractional NGS count over selection days 2 and 3 (reads of this peptide / all reads for the bait, averaged over … for the first, 0.00258 average fractional NGS count over selection days 2 and 3 (reads of this peptide / all reads for the bait, averaged over … for the second.

First: chain 1 AEQWAAEFIHQQGTSD [chain 1 Q10H]
Second: chain 1 AEQWAAEFINQQGTSD [chain 1 Q10N]
The screen value of the first is higher: 0.00189 average fractional NGS count over selection days 2 and 3 (reads of this peptide / all reads for the bait, averaged over … for the first, 0.00173 average fractional NGS count over selection days 2 and 3 (reads of this peptide / all reads for the bait, averaged over … for the second.

First: chain 1 AEQWAAEFILQQGTSD [chain 1 Q10L]
Second: chain 1 AEQWAAEFITQQGTSD [chain 1 Q10T]
The screen value of the first is lower: 0.00121 average fractional NGS count over selection days 2 and 3 (reads of this peptide / all reads for the bait, averaged over … for the first, 0.00279 average fractional NGS count over selection days 2 and 3 (reads of this peptide / all reads for the bait, averaged over … for the second.

Going from chain 1 AEQWAAEFIVQQGTSD [chain 1 Q10V] to chain 1 AEQWAAEFIYQQGTSD [chain 1 Q10Y], the screen value rises from 0.00204 average fractional NGS count over selection days 2 and 3 (reads of this peptide / all reads for the bait, averaged over … to 0.00306 average fractional NGS count over selection days 2 and 3 (reads of this peptide / all reads for the bait, averaged over ….

Going from chain 1 AEQWAAEFIFQQGTSD [chain 1 Q10F] to chain 1 AEQWAAEFIWQQGTSD [chain 1 Q10W], the screen value rises from 0.00183 average fractional NGS count over selection days 2 and 3 (reads of this peptide / all reads for the bait, averaged over … to 0.0034 average fractional NGS count over selection days 2 and 3 (reads of this peptide / all reads for the bait, averaged over ….

First: chain 1 AEQWAAEFIMQQGTSD [chain 1 Q10M]
Second: chain 1 AEQWAAEFIDQQGTSD [chain 1 Q10D]
The screen value of the first is higher: 0.00324 average fractional NGS count over selection days 2 and 3 (reads of this peptide / all reads for the bait, averaged over … for the first, 0.000871 average fractional NGS count over selection days 2 and 3 (reads of this peptide / all reads for the bait, averaged over … for the second.

Going from chain 1 AEQWAAEFIEQQGTSD [chain 1 Q10E] to chain 1 AEQWAAEFIQQQGISD [chain 1 T14I], the screen value falls from 0.0048 average fractional NGS count over selection days 2 and 3 (reads of this peptide / all reads for the bait, averaged over … to 0.00075 average fractional NGS count over selection days 2 and 3 (reads of this peptide / all reads for the bait, averaged over ….

First: chain 1 AEQWAAEFIQQQGFSD [chain 1 T14F]
Second: chain 1 AEQWAAEFIQQQGPSD [chain 1 T14P]
The screen value of the first is higher: 0.00226 average fractional NGS count over selection days 2 and 3 (reads of this peptide / all reads for the bait, averaged over … for the first, 0.00162 average fractional NGS count over selection days 2 and 3 (reads of this peptide / all reads for the bait, averaged over … for the second.
